Measured values: publication PMC6289052

Legend:
[1] = test system: TCF4 DBD (mouse); assay: PBM; settings: not given in the material (PBM protein binding as described previously)
[2] = test system: USF1 DBD (mouse); assay: PBM; settings: not given in the material (PBM protein binding as described previously)

Row | Substance | binding signal [1] | binding signal [2]
1 | CAGGTGGT, cytosine | 52 Z-score | 
2 | GTCACGTG, cytosine |  | 87 Z-score
